According to patent US20260209311A1, “MODIFIED G PROTEIN COUPLED RECEPTOR AND USE THEREOF” (ALPHELIX BIOTECH CO., LTD., priority 2023, published 2026):

Target: T1, modified GPR75 (GPR75-GFP10-11 modified protein complex) (Homo sapiens, UniProt O95800, A308G/DEL234-307/I309H/INS313[…]/N310Y)
T1 construct: obesity-related receptor GPR75 (1-395); signal peptide (N); made in house; The clamp protein is made in E. coli Rosetta 2 (DE3), as described for GFP-clamp
Test: SPR determination of affinity of purified modified GPR75 to CCL5 ligand
Assay type: binding
Conditions: Biacore 8K, Series S Sensor SA chip, pH 7.4; values only in FIG. 79 C
Experimental: The purification and identification method of the modified GPR75 fusion protein refers to Example 4. The difference is that during the purification, GFP-clamp-avi-biotin was added rather than GFP-clamp. The molecular sieve chromatography result graph of the modified fusion protein is seen in A of FIG. 79, and the SDS gel electrophoresis result graph of the modified fusion protein is seen in B of FIG. 79.
The purified GPR75 was used for determination of affinity to CCL5 ligand via surface plasmon resonance (SPR). The used instrument was Biacore 8K, and the chip was Series S Sensor SA Chip:SA-2429. Both a protein immobilization buffer and a running buffer contained 20 mM HEPES, 150 mM NaCl, 0.005% LMNG and 0.0005% CHS, pH 7.4. The affinity determination results are seen in C of FIG. 79.

Question: “CCL5: CCL5 ligand of the obesity-related receptor GPR75” was tested. Which “affinity (SPR)” value did it give?
Answer: Its value is “close to reported results”.
